Measurements reported in PMC9500956, “In Vitro Characterization of the Physical Interactions between the Long Noncoding RNA TERRA and the Telomeric Proteins TRF1 and TRF2”.

T1: GST-B R13-30A (human, UniProt Q15554 43-86, R55A;R59A;R60A;R63A;R67A;R69A;R70A;R72A)
T1 chain: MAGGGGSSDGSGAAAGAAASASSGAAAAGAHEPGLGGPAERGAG


Experiments:
GST-AP2EAB (human) = GST-AP2EAB (human) (UniProt P54274+Q15554); assay: EMSA; conditions: RNA EMSA: 50 mM HEPES pH 8, 1 mM DTT, 100 mM NaCl, 0.01% BSA, 2% glycerol, 50 ng/uL E. coli tRNA, 0.25 nM RNA, 20 min on ice then 10 min 25 C; dsDNA EMSA: same …
GST-A1-50B (human) = GST-A1-50B (human) (UniProt P54274+Q15554); assay: EMSA; conditions: RNA EMSA: 50 mM HEPES pH 8, 1 mM DTT, 100 mM NaCl, 0.01% BSA, 2% glycerol, 50 ng/uL E. coli tRNA, 0.25 nM RNA, 20 min on ice then 10 min 25 C; dsDNA EMSA: same …
GST-TRF2ΔB = GST-TRF2ΔB (human, UniProt Q15554 87-542, del43-86); assay: EMSA; E. coli tRNA; RNA EMSA: 50 mM HEPES pH 8, 1 mM DTT, 100 mM NaCl, 0.01% BSA, 2% glycerol, 50 ng/uL E. coli tRNA, 0.25 nM RNA, 20 min on ice then 10 min 25 C; dsDNA EMSA: same; conditions: protein: recombinant, tags: N-terminal GST, chain copies: 2, label: 5'-32P
GST-TRF1ΔA = GST-TRF1ΔA (human, UniProt P54274 67-439, del1-66); assay: as above; conditions: protein: recombinant, tags: N-terminal GST, chain copies: 2, label: 5'-32P
GST-B R13-30A = molecular target: T1, GST-B R13-30A; assay: as above; conditions: protein: recombinant; tags: N-terminal GST; label: 5'-32P; G4-forming

Chain of GST-TRF2ΔB (Q15554 87-542, stated change not applied): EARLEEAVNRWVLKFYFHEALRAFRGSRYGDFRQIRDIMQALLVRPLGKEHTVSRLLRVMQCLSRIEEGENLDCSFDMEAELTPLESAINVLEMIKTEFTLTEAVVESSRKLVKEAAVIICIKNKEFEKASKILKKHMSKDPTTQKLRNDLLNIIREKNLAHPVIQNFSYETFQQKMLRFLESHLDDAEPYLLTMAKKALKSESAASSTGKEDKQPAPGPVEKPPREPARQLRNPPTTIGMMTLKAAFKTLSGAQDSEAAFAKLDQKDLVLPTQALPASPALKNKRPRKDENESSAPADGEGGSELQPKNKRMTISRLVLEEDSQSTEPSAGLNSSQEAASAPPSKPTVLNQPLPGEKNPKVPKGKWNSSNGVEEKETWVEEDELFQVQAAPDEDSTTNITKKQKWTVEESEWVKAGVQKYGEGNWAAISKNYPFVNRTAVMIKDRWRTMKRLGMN
Chain of GST-TRF1ΔA (P54274 67-439, stated change not applied): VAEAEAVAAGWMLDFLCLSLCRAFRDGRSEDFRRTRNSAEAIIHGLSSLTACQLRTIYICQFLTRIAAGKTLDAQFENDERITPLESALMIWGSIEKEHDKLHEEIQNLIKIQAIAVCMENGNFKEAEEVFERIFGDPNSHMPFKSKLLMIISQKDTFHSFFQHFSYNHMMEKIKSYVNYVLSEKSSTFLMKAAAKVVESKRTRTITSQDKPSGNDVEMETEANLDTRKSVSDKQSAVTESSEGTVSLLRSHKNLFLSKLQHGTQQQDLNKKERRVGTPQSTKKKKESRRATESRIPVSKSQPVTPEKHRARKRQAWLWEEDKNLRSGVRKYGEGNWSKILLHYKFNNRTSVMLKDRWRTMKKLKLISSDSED
Chain of GST-A1-50B (human) (P54274 whole entry, chain 1 of 2): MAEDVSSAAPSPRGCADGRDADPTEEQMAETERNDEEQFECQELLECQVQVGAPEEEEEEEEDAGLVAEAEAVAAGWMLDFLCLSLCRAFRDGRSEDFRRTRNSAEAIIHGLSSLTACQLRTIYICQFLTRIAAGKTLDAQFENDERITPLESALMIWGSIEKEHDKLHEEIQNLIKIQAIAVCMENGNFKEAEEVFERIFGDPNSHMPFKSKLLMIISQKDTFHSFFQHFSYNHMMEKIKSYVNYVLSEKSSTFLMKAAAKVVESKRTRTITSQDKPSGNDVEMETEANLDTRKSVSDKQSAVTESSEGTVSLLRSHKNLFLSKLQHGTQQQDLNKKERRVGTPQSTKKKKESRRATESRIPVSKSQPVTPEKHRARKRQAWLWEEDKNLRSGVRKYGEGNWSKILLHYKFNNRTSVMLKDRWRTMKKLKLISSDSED
Chain of GST-A1-50B (human) (Q15554 whole entry, chain 2 of 2): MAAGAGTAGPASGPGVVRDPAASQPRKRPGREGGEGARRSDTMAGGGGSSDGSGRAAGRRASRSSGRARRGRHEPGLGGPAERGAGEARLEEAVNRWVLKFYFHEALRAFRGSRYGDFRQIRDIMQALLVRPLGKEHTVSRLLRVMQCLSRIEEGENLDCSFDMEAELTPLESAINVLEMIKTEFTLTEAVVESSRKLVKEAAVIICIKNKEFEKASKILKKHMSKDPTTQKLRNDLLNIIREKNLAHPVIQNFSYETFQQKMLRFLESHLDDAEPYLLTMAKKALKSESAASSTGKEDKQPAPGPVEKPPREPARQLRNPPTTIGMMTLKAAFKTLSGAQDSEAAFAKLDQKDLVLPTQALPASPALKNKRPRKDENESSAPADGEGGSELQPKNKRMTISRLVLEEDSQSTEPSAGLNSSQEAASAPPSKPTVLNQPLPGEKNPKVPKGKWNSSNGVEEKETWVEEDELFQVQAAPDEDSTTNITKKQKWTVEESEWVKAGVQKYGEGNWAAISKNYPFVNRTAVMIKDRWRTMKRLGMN
Chain of GST-AP2EAB (human) (P54274 whole entry, chain 1 of 2): as the sequence (P54274 whole entry, chain 1 of 2) above
Chain of GST-AP2EAB (human) (Q15554 whole entry, chain 2 of 2): as the sequence (Q15554 whole entry, chain 2 of 2) above

| Molecule | binding result (GST-TRF2ΔB; G4-forming) | binding result (GST-TRF1ΔA; G4-forming) | binding result (GST-TRF2ΔB; not G4-forming) | binding result (GST-TRF1ΔA; not G4-forming) | also measured |
| --- | --- | --- | --- | --- | --- |
| UUAGGGUUAGGGUUAGGGUUAGGGUUAGGGUUAGGGUUAGGGUUAGGGUUAGGGUUAGGGUUAGGGUUAGGG [TERRA (UUAGGG)12] | – | – | – | – | binding signal (% binding regained at 320 nM) (GST-AP2EAB (human)): 80; binding signal (% of B domain alone) (GST-A1-50B (human)): 60 |
| AAAGGGAAAGGGAAAGGGAAAGGGAAAGGG (structured_RNA) [MUT4 (AAAGGG)5] | binds | binds | – | – | – |
| UUACCGUUACCGUUACCGUUACCGUUACCG (ssRNA) [MUT2 (UUACCG)5] | – | – | no binding | no binding | – |
| UUACGGUUACGGUUACGGUUACGGUUACGG (ssRNA) [MUT1 (UUACGG)5] | – | – | no binding | no binding | – |
| AUAGGGAUAGGGAUAGGGAUAGGGAUAGGG (structured_RNA) [MUT3 (AUAGGG)5] | binds | binds | – | – | – |
| UUAGGGUUAGGGUUAGGGUUAGGGUUAGGG (structured_RNA) [TERRA (UUAGGG)5] | binds | binds | – | – | binding result (GST-B R13-30A): no binding |
